Assay: soluble on expression in E. coli; label from the status in PepcDB or PDB records

| Sequence | soluble on expression in E. coli |
| --- | --- |
| GMSEPYGKAFSLMRAEAEPAWRAYTHHAFVEGLKAGTLPREAFLHYLQQDYVFLIHFSRAWALAVVKSETHSEMLAAVGTVNALVAEEMQLHIGICEASGISQEALFATRERAENLAYTRFVLEAGYSGDLLDLLAALAPCVMGYGEIGKRLTAEATSTLYGDWIDTYGGDDYQAACKAVGTLLDDALERRLGAEFTSSPRWSRLCQTFHTATELEVGFWQMGLTP | soluble |
| MVAKGRIIRVTGPLVVADGMKGAKMYEVVRVGELGLIGEIIRLEGDKAVIQVYEETAGVRPGEPVVGTGASLSVELGPGLLTSIYDGIQRPLEVIREKTGDFIARGVTAPALPRDKKWHFIPKAKVGDKVVGGDIIGEVPETSIIVHKIMVPPGIEGEIVEIAEEGDYTIEEVIAKVKTPSGEIKELKMYQRWPVRVKRPYKEKLPPEVPLITGQRVIDTFFPQAKGGTAAIPGPFGSGKTVTQHQLAKWSDAQVVIYIGCGERGNEMTDVLEEFPKLKDPKTGKPLMERTVLIANTSNMPVAAREASIYTGITIAEYFRDMGYDVALMADSTSRWAEALREISGRLEEMPGEEGYPAYLASKLAEFYERAGRVVTLGSDYRVGSVSVIGAVSPPGGDFSEPVVQNTLRVVKVFWALDADLARRRHFPAINWLTSYSLYVDAVKDWWHKNIDPEWKAMRDKAMALLQKESELQEIVRIVGPDALPERERAILLVARMLREDYLQQDAFDEVDTYCPPEKQVTMMRVLLNFYDKTMEAINRGVPLEEIAKLPVREEIGRMKFERDVSKIRSLIDKTNEQFEELFKKYGA | soluble |
| MGKEQFREADKALKVVGVKFAPGDCEFMRQTAHVPIFNNKLYEDVEGKLQPANYGPLDPKMGVSTKTGTCSTCGLGLTDCVGHFGYFDLDVPVFHIGFFKLTIQLLQCICKNCSSILLTPEQHRVFSRQVMNPNLDYLHRKALHKRIVAACKKGSTCSHCGLKNGTVKKAVGAVLKIAFASPVSVDELGKFATMFSSNQEVGDHVRKMKFTLLNPLFVQKLFSNIKEGDIPVLMVRSGEEKHPNDLLLTRMPVPPVCIRPSVVSEVKAGTTEDDVTMKLMEIMLTNDVLKKHKRDGAPSKTLFETWEHLQIQCALYINSEMSGLPPDMQPKRAMRAFTQRLKGKQGRFRGNLCGKRVDFSGRTVISPDPNLRIDQVGVPIHVAMTLTFPEIVNASNIEKMRQLVINGSDVHPGANYLVEKKTGNKKLLKYGKRDELAKNLRMGDTIERHLDDNDVVLFNRQPSLHKISIMSHRAKVMPGRTFRFNECACTPYNADFDGDEMNLHLPQTYEAKAEASELMNVKNNLITPRSGEPLVAAIQDFITGGYLLTHKDTFLPRAEVYRFAAALIDASAKKQTKIRIPPPAIRRPVELWTGKQLIELIIRPDKGSDVSLNLTAKNKSYTGNLELCSKDSYVIIRNSVLLAGCLDKSLLGSSSKVNIFYMLMRDYGEDAAVDAMWRLARMAPVFLSNRGFSIGIGDVRPSEQLLREKGQLVDNGYSKCSQYIKELEEGKLKAQPGCTEEETLESIILRELSTIRDHAGQVCLRNLSKYNAPLTMAVCGSKGSFINISQMIACVGQQAISGHRPPDGFEERSLPHFERKKKTPEAKGFVANSFYSGLTPTEFFFHTMGGREGLVDTAVKTAETGYMQRRLVKCLEDLCASYDGTVRSSVGDVIEFVFGEDGLDPAMMEAKDGSVVDFTHVLEHAKNIQTTKEQPIPVDKLDEVLKAEIQKKFKGKYVHFADKLSEYITQTEIKKSKKWQNGKAHCGNHETADLKTKESCKICKNLEAYKTSLLANSCLTKTQLCSFIELCYYKVARAITEPGTAVGAIAATSIGEPSTQMTLKTFHFAGVASMNITQGVPRIKEIINAVKTISTPIITAALLDPYDESLARRVKARIEKTTLGEICDYIEEVYLPDDYFLLVKLNSKRIRLLQLEVCMESISYAIATSKVCPQMRGCKIVAHGKTMMAIRPPSTSKLSKTMTMQILKYSLANVVVKGIPSVNRCVIHADEKKGDFYSLLVEGTDFRSVLSSVGVDPRKTNFNNALVVADVLGIEAARSCIINEIIATMDAHGIGLDRRHVMLLADVMTYRGEVLGITRNGLVKMKDSVLLLASFEKTMDHLFEAAFFSQRDVIHGVSECIIMGTPMTVGTGTFKLMQKYDKKAVLKQNSPIFERLNVTL | not soluble |
| MSLLRFSAVSRHHRGASIDPMTFSEATTPDALTPDAHTPRLLTCDVLYTGMGGAQSPGGVVVVGETVAAAGHPDELRRQYPHAAEERAGAVIAPPPVNAHTHLDMSAYEFQALPYFQWIPEVVIRGRHLRGVAAAQAGADTLTRLGAGGVGDIVWAPEVMDALLAREDLSGTLYFEVLNPFPDKADEVFAAARTHLERWRRLERPGLRLGLSPHTPFTVSHRLMRLLSDYAAGEGLPLQIHVAEHPTELEMFRTGGGPLWDNRMPALYPHTLAEVIGREPGPDLTPVRYLDELGVLAARPTLVHMVNVTPDDIARVARAGCAVVTCPRSNHHLECGTFDWPAFAAAGVEVALGTDSVASGETLNVREEVTFARQLYPGLDPRVLVRAAVKGGQRVVGGRTPFLRRGETWQEGFRWELSRDLEGHHHHHH | soluble |
| MTTAAKTETEDPTARRILDAALEQFTVFGLRRSSMDDVAKRAGVSRVTVYRRFGTKDALVEQTLLRENSRFFQRLDQAVAALPTMEERVVEGFVVALRHTRAHPLFGGLLRLEPEVVLPYLTVHGGSSLAATVDYLTGHLRRAQQAEGRPGDDPRPVAELMVRVAVSFLLNPASCIEMDDEDQARAFARRYLAPLLNA | not soluble |
| METPKLSVEAIEKGTVIDHIPAGRGLTILRQFKLLHYGNAVTVGFNLPSKTQGSKDIIKIKGVCLDDKAADRLALFAPEAVVNTIDNFKVVQKRHLNLPDEIAEVFRCPNTNCAGHGEPVKSRFYVKKHNGQTRLKCHYCEKTYSRDSVAEA | not soluble |
| SLKNTGYILALCLTASGHVLAHDVWITGKQAENNVTAEIGYGHNFPSKGTIPDRRDFFENPRLYNGKETITLKPASTDYVYKTESASKDNGYVLSTYMKPGYWSRTSSGWKPVSREGRNDVAYCEFVTKYAKSFIPGEQQMPAQLYQSPTGHELEIIPLSDISRFSENVKLKVLYKTSPLAGAIMELDSVSYLTSSRHTHAVEHKHPVHKAELTFVTNEDGIVTVPSLHIGQWLAKVQNKKSFQDKSLCDETVDVATLSFSRN | not soluble |
| MGSDKIHHHHHHMRVNSTDLQNAFGKYLSLLEKEDIIITKNGRSVAKLLRYNEPDYFLVHEESKNYKTTKRISYEEYMDLVDSSDQRYELIDGENYLLATPSFKHQVVVNEISGHFYNYFRGKSCRSLTSPFDVRLFGFATKFEEDPNVVQPDVVVICDLDKINEANKYEGIPSLIVEVLSPSTKGKDMVMKLNLYMKSGVLEYWVVDMESKSILQYSFSPERDIDSLKSLGEEDTIESSAFAGLKILLGEIFAEI | not soluble |
| MGSDKIHHHHHHMRTHGWNSTCVNRPSGSANSRRLVAHGNGWQTIDMDFAARYVALGDSFTEGVGDDDPARPNGVRGWADRVAEQLGAADPAFGYANLAIRGRKLRQIMAEQVDAAIELKPTLVTIYAGANDILRPKVDIDDLLAEYDAGIRKLSATGATVVMFTGFDARGSKVFGTMRGRTAIYNELVRGIAGDHGALLVDYWRFSEYYDWGMWAKDRMHMSAAGHANMAKRVLTVLEHDHSIDVPPMTPVPELSRADAIRANARWVREFAGPWVVRRVTGKSSGDGLQPRYSQLTRL | not soluble |
| MGSDKIHHHHHHMSGETLYQQLVNEWMELIRNGTVRPGERLPSVRKACAMHKVSPSTILQTYRMLEDRGLIEARPQSGFYVKSAASLPLPRMRRQSAAHHTGEVVDQIEAVMGVQSQADFIDLALASPRGSDFYPTTRFKHIMGRLLRQHPELTTDYPFPPGSERLRRQIAQRAVNWGCVLAADELVISNGCTEALQLALRAVCKPGDTVGVESPTYFALLPMLKDLGLAVIEIPTHPTSGLALDALELLLSEKRLNAVVAMPTVHNPLGSTMPPEAKRRLAQLVNDYQVPLIEDVPHAELFYGASTPDAVKAYDRDGWVLLCSSYSKTLAPGFRIGWIAPGRFLSEVRRLKFSSSLGQPALLEETLAEYLESGGYDHHLRLLRRHFISQMEKLRGAVAQHFPDGTRATLPSGGCLLWVELPSHADTMQLFRAALAERITVVPGAMYSAKGRYRNCLRLSCCYPWNEAYQRALIRVGELAGELAEGH | not soluble |
| MRIDTVNVLLEALPYIKEFYGKTFVIKFGGSAMKQENAKKAFIQDIILLKYTGIKPIIVHGGGPAISQMMKDLGIEPVFKNGHRVTDEKTMEIVEMVLVGKINKEIVMNLNLHGGRAVGICGKDSKLIVAEKETKHGDIGYVGKVKKVNPEILHALIENDYIPVIAPVGIGEDGHSYNINADTAAAEIAKSLMAEKLILLTDVDGVLKDGKLISTLTPDEAEELIRDGTVTGGMIPKVECAVSAVRGGVGAVHIINGGLEHAILLEIFSRKGIGTMIKELEG | soluble |
| MSLTHLFYLTRGAPLSLKENYYPWLKAGSFFPDALYSCAPSNKDWSDFAEFTHWPNFLMIAVSYWQQKYGQNDRLRGTHGSLALKSFLIGVFTHQIVDVSWHSLVTDYRMHGLLRVLSETEFDGDIETAHTFLDVMGEFLTLNNVIRDSNNNENWDFLTRSDWKLPREEDLMEIIRNAGLSKEKLSYAELEFCVKRGMAAAISEGYLFRSQRNQLLTNIYSTSPRANDLILNHWLGGQSNLVAMLQRCVPFFETLFHDENTNEAQAEELRLCANLPPVSQKRINARPLVSSLKARKGNSHIVVSPMKSFSDFGTSLTMGKFREDNKDYLAVSAPLEDTVGAIYIVPWDILTVARKEDFSILQPITAMYGSKVGTYKASDVDYLLVSQPGTCTIDFYFKGVKILTIKDETTEEAHQLQFAVTGNFYDDKIPDLVVSSPSYGANETGIATFIPGSSIISYLTNSDKYQVVDISTFKGVINLDGYPMKIPFQHFGATIQISDTTDKQKLIYITCQSLGTVFVYSSNDLHDLSIPIYYITKNGVIPAKDSDHVEWHIIPSKEHGMFGAAIYSWNFEGMSFVAVSQPMFDTVFIYIEKSGQIEFFLKLVLKIKTKSDSIPDEFGSSLLFNDEEKKLYVSSPGSFDARGSIWKISMDELLKAGNDPKRKTLLINNLRHLMLINPDKSSKGVSNFGNSMILGPQNHLIVGIPQYGYGNFDHMQLTGRILVLEGHHHHHH | not soluble |
| MPTTIEREFEELDTQRRWQPLYLEIRNESHDYPHRVAKFPENRNRNRYRDVSPYDHSRVKLQNAENDYINASLVDIEEAQRSYILTQGPLPNTCCHFWLMVWQQKTKAVVMLNRIVEKESVKCAQYWPTDDQEMLFKETGFSVKLLSEDVKSYYTVHLLQLENINSGETRTISHFHYTTWPDFGVPESPASFLNFLFKVRESGSLNPDHGPAVIHCSAGIGRSGTFSLVDTCLVLMEKGDDINIKQVLLNMRKYRMGLIQTPDQLRFSYMAIIEGAKCIKGDSSIQKRWKELSKEDLSPAFDHSPNKIMTEKYN | soluble |
| MGSDKIHHHHHHMLFSAPPVLAPVVPGKALEFPQDFGAHNDFRIEWWYVTGWLETPTGKPLGFQITFFRTATEIDRDNPSHFAPDQLIIAHVALSDPAIGKLQHDQKIARAGFDLAYARTGNTDVKLDDWIFVRETDGRYRTRIEAEDFTLTFILTPSQPLMLQGENGFSRKGPGAPQASYYYSEPHLQVSGIINRQGEDIPVTGTAWLDREWSSEYLDPNAAGWDWISANLDDGSALMAFQIRGKDDSKIWAYAALRDASGHTRLFTPDQVSFHPIRTWRSARTQAVYPVATRVLTGETEWQITPLMDDQELDSRASAGAVYWEGAVTFTRDGQPAGRGYMELTGYVRPLSM | not soluble |
| MDITNLIELETICLDLKAQTKDEALKELVEMLEAAGKLNSQSQFLADIWKREEIGNTGFDDGIAIPHAKSDAVAKPAVAVGISRNGIDYGAEDGELSDVFFMLASPDGDDHHHIEVLAQISTKIIEDGFVEKLKQAQSREEALEMLTDIQTQSNEFLPTSLEFASEPLSPWAQKLGRIKEH | not soluble |

— the DeepSol protein solubility set
